In patent US20210190798A1 (AstraZeneca / MedImmune, published 2021):
Values belong to the binder of their own block, whether it stands above or below them.

B4: human LIF (Leukemia Inhibitory Factor), expression host not stated at the place of use (ligand)
chain: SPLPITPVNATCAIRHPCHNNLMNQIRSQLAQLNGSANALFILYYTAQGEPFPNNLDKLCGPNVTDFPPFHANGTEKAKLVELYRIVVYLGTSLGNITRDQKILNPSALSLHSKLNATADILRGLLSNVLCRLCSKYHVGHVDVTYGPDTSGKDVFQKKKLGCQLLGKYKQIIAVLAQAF
notes: species not repeated there) and for the cell assays with endogenous or added human LIF; also called hLIF; Bt-LIF

Tests used:
human LIF (HEK-293) [1] = biological target: T1, human LIF (HEK-293) (human, UniProt P15018 23-202); assay: MSD electrochemiluminescence sandwich assay (Example 23): A4 spot-coated as capture, Sulfo-Tag 7C3 (M017C3) as detection, rhLIF titrated with saturating h5D8
T1 construct: Bought recombinant glycosylated protein; also called hLIF (HEK 293); huLIF (mammalian)
Excerpt: Quality controls and samples are transferred in triplicate to the coated and blocked MSD plate. […] The intensity quantified by the system is proportional to the amount of bound antibody complexes and is expressed as RLU (Relative Light Units).

[2] = biological target: B4; assay: competitive binding assays against LIF
human LIF (HEK-293) [3] = biological target: T1, human LIF (HEK-293); assay: MSD electrochemiluminescence sandwich assay: mAb 3 (chimeric rabbit/human A4) as capture antibody, LIF titrated; detection antibody not named in the figure (7C3 in Example 23)
[4] = biological target: B4; assay: cell-based or functional assay
[5] = biological target: T2, recombinant human LIFR (LIF receptor) (human, UniProt P42702 45-833, limits assumed); assay: BLI (Octet RED 96), control experiment, h5D8 on AHC biosensor
T2 construct: Soluble analyte in the Octet assay and coated on ELISA plates; also called hLIFR
T2 sequence (looked up): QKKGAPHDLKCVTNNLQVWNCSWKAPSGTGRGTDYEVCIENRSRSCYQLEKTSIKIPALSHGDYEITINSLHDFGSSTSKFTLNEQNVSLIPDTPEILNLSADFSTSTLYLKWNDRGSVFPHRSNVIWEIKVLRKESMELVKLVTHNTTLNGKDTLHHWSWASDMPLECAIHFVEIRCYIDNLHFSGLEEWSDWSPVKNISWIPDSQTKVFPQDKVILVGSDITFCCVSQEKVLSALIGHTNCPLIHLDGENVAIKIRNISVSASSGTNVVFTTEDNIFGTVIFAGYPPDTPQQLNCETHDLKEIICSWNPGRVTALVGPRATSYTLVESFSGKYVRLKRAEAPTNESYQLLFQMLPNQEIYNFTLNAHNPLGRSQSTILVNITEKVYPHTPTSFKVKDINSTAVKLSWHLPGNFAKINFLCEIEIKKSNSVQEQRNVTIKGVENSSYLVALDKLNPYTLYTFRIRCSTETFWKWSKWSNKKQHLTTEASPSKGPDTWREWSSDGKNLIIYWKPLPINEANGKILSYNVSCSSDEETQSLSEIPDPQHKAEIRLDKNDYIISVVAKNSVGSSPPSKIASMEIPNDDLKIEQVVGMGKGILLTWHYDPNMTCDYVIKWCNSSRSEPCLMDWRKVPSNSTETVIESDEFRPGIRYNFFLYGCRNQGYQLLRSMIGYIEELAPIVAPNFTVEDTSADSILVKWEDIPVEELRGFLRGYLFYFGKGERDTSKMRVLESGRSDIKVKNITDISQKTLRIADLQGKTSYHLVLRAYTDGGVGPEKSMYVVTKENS

human IL-6 (E. coli) = biological target: T3, human IL-6 (E. coli) (human, UniProt P05231 30-212, limits assumed); assay: BLI (Octet), h5D8 amine-coupled on AR2G biosensor, cytokine as analyte
T3 construct: also called huIL-6 (E. coli)
Description: 9.0.0.26 as follows: Amine Reactive 2ndGeneration Biosensors (AR2G) were hydrated for a minimum of 15 minutes in water. […] Kinetics experiments were then performed with the following Dip and Read steps at 30° C., 1000rpm: vi) 60 seconds Baseline in lx kinetics buffer; vii) 180 seconds Association of appropriate serial dilutions of a cytokine in lx kinetics buffer; viii) 300 seconds Dissociation in 1X kinetics buffer; ix) Three Regeneration/Neutralization cycles alternating between 10mM glycine pH 2.0 and lx kinetics buffer respectively (5 seconds in each for 3 cycles).

recombinant human gp130 = biological target: T4, recombinant human gp130 (human, UniProt P40189 23-619, limits assumed); assay: ELISA: LIF pre-incubated with B09 and added to a gp130-coated plate; the mAb part is detected with anti-rat IgG-HRP
T4 construct: Coated on ELISA plates
T4 sequence (looked up): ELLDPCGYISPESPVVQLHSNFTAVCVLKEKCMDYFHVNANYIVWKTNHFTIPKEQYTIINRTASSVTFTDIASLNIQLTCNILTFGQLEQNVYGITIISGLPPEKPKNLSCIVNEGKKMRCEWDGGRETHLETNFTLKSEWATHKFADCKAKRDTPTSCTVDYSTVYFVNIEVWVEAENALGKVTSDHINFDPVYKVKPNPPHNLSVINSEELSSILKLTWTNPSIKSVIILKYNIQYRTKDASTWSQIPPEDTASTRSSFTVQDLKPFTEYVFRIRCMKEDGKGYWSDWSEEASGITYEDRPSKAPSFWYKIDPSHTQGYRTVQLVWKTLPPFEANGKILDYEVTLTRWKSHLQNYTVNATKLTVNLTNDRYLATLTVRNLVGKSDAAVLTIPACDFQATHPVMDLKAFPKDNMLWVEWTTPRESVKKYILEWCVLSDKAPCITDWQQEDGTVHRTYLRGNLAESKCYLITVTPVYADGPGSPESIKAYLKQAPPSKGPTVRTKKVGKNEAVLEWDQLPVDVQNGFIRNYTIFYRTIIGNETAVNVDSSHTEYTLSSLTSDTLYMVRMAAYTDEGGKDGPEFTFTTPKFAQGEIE

T1 sequence (P15018 23-202 limits assumed): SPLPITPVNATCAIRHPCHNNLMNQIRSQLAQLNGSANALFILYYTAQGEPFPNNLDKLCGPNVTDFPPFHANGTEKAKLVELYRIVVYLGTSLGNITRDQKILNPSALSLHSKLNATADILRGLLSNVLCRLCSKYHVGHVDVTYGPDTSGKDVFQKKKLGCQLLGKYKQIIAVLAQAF
T3 sequence (P05231 30-212 limits assumed): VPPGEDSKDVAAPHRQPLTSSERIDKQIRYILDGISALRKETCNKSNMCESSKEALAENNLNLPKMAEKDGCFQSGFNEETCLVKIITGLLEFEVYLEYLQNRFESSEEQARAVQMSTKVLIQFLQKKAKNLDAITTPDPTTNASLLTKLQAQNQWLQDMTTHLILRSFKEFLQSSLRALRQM

binding result (human LIF (HEK-293) [1]): binds
binding result [2]: binds
B1: A4 (rabbit monoclonal anti-LIF capture antibody) (antibody, V domains shown)
VH: EQLEESVGDLVKPGASLTLTCTASGFSFSGLYYMCWVRQAPGKGLEWIACIWTGSTDSTYYATWAKGRFTISKTSSTTVTLQMTSLTVADTATYFCARGGGVPGDGYALWGPGTLVTVSS
VL: ELVMTQTPASVSEPVGGTVTINCQASEDISSNLVWYQQKSGQPPKLLIYDASMLASGVPSRFKGSGSGTQFTLTISDLECADGATYYCQSYYVASSSYFVNGFGGGTEVV
notes: Rabbit monoclonal antibody; also called capture antibody A4; rabbit A4 monoclonal capture antibody

binding result (human LIF (HEK-293) [3]): binds
B2: mAb 3 (antibody, V domains shown)
VH: EQLEESVGDLVKPGASLTLTCTASGFSFSGLYYMCWVRQAPGKGLEWIACIWTGSTDSTYYATWAKGRFTISKTSSTTVTLQMTSLTVADTATYFCARGGGVPGDGYALWGPGTLVTVSS
VL: ELVMTQTPASVSEPVGGTVTINCQASEDISSNLVWYQQKSGQPPKLLIYDASMLASGVPSRFKGSGSGTQFTLTISDLECADGATYYCQSYYVASSSYFVNGFGGGTEVV
notes: also called chimeric rabbit/human A4 antibody

IC50 for biological inhibition (pSTAT3, U-251 cells, serum starved) [4]: 490 picomolar
binding result [5]: no binding
binding result (human IL-6 (E. coli)): no binding
B3: h5D8 (humanized 5D8 antibody comprising H2 and L2) (antibody, V domains shown)
VH: QVQLQESGGGLVKPGGSLRLSCAASGFTFSHAWMHWVRQAPGKGLEWVGQIKAKSDDYATYYAESVKGRFTISRDDSKNTLYLQMNSLKTEDTAVYYCTCWEWDLDFWGQGTMVTVSS
VL: DIVMTQTPLSSPVTLGQPASISCRSSQSLLDSDGHTYLNWLQQRPGQPPRLLIYSVSNLESGVPDRFSGSGAGTDFTLKISRVEAEDVGVYYCMQATHAPPYTFGQGTKLEIK
notes: also called H2L2; G (H2L2)

Binder: B4
binding result (recombinant human gp130): binds
